Reference: paper PMC3969726, “ArdA proteins from different mobile genetic elements can bind to the EcoKI Type I DNA methyltransferase of E. coli K12^☆” (Biochimica et Biophysica Acta, 2014)

Target: the molecule itself
Assay: SEC; Biosep-SEC-S3000 column; 20 mM Tris-HCl, 20 mM MES, 200 mM NaCl, 10 mM MgCl2, 0.1 mM EDTA, 7 mM 2-mercaptoethanol, pH 6.5; 25 °C; apparent molecular mass against injected monomer concentration, fitted to a monomer-dimer equilibrium; apparent constants; dimer to monomers

B1: V583 ArdA (ArdA protein from Enterococcus faecalis V583, Orf EF2335) (natural protein, UniProt Q832A5 1-166, looked up)
chain: MEQMRVYIANLGKYNEGELVGAWFTPPVDFDEVKERIGLNDDYEEYAIHDYELPFEIDEYTSIEEINRLCGLAEELEGTPIGEVASEIQHAFFNSFEEMVEHVDDIVYYPDCNDMEDLAYQMVNEGYLGDAPENFVRYFNYSSFARDLEIEGNYLVTNRGIFEYPI
notes: ArdA protein, open reading frame EF2335 of Enterococcus faecalis V583; In solution an equilibrium of monomer and dimer; source: overexpressed, purified (DEAE anion exchange chromatography, size exclusion chromatography)
Kd: 980 nM
